What was measured:
[1] = Transmission electron microscopy (TEM); format: physicochemical; details: magnification 10K
Protocol: Transmission Electron Microscopy (TEM)
TEM images were collected using a Jeol 1200 EX transmission electron microscope (Jeol Ltd., Tokyo, Japan) at an excitation voltage of 80 kV. For each sample, the formvar and carbon-coated side of a 100-mesh copper or nickel grid was positioned on a 5 μl drop of protein solution for 5 minutes. Afterwards, it was positioned on a 100 μl drop of PBS for 2 minutes, followed by three 2-minute incubations with a 100 μl drop of distilled water. The grids were then stained for 2 minutes with a 100 μl drop of 2% (m/v) methylcellulose with 0.4% uranyl acetate pH 4. Excess fluid was removed by streaking the side of the grids over filter paper, and the grids were subsequently dried under a lamp. Samples were analysed at a magnification of 10K.

[2] = biological target: T1, recombinant human HSP90beta (Homo sapiens, UniProt P08238); assay: ELISA: binding of HSP90 to immobilized (misfolded) protein ligands; details: 5 mM DTT in binding buffer
T1 construct: purchased Dr. S. Rüdiger, Cellular Protein Chemistry, Utrecht University
T1 sequence (P08238 whole entry): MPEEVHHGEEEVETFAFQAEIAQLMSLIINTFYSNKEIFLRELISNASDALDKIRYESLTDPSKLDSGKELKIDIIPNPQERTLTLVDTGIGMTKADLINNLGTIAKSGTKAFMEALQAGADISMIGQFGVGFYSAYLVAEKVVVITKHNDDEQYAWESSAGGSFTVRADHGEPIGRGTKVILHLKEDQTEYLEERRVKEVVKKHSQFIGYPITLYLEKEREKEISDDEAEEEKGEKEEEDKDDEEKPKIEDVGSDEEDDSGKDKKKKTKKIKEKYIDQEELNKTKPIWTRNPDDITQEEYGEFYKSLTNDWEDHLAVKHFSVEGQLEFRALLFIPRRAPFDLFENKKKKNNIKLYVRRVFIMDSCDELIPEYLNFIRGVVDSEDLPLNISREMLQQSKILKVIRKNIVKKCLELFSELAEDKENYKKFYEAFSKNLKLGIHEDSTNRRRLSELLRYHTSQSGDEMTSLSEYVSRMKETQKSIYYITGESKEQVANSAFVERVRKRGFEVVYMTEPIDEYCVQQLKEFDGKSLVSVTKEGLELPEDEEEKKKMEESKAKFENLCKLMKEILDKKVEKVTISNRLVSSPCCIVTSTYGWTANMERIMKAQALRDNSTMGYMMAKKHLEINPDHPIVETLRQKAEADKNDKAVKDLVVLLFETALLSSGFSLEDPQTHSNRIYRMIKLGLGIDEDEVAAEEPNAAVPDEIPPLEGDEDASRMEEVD
Protocol: Recombinant human HSP90beta was bought from Dr. S. Rüdiger (Cellular Protein Chemistry, Department of Chemistry, Faculty of Science, Utrecht University). HSP90beta eluted from an anion exchange column was supplied in 35 mM Bis-Tris/25mM Tris, 5 mM DTT, approximately 385 mM NaCl, approximately pH 9.0. The HSP90beta concentration was 5.0 μM (450 μg/ml with a MW of 90.000 Da; extinction coefficient of 53740 l/(mol*cm)). The supplied frozen stock is kept at −80° C. Before use, the stock is quickly thawed almost completely in a 37° C. water bath, and kept at wet ice. Before use, the HSP90beta solution is centrifuged for 5 minutes at 16,000*g at 4° C. During dilution of HSP90beta solution, 5 mM DTT should be incorporated in the dilution buffer, to keep free Cys residues. Thawed HSP90beta was aliquoted and snap frozen in liquid nitrogen before re-storage at −80° C.
Binding of chaperones to immobilized (misfolded) protein ligands was determined using an enzyme linked immuno sorbent assay (ELISA) approach. […] After 5 washes with wash buffer followed by two washes with PBS, binding of antibodies was assessed. […] Plates were read at 450 nm. Triplicates were averaged and standard deviations calculated. […]

Binding of concentration series of HSP90 to coated ligand [2]: did also not bind
B1: dOVA standard: heat-denatured chicken ovalbumin (protein)
chain: GSIGAASMEFCFDVFKELKVHHANENIFYCPIAIMSALAMVYLGAKDSTRTQINKVVRFDKLPGFGDSIEAQCGTSVNVHSSLRDILNQITKPNDVYSFSLASRLYAEERYPILPEYLQCVKELYRGGLEPINFQTAADQARELINSWVESQTNGIIRNVLQPSSVDSQTAMVLVNAIVFKGLWEKAFKDEDTQAMPFRVTEQESKPVQMMYQIGLFRVASMASEKMKILELPFASGTMSMLVLLPDEVSGLEQLESIINFEKLTEWTSSNVMEERKIKVYLPRMKMEEKYNLTSVLMAMGITDVFSSSANLSGISSAESLKISQAVHAAHAEINEAGREVVGSAEAGVDAASVSEEFRADHPFLFCIKHIATNAVLFFGRCVSP
Appearance on TEM images [1]: aggregates into non-fibrillar multimers

Reference: patent US20100015126A1, “Methods of Binding of Cross-Beta Structures By Chaperones” (priority 2006, published 2010)
